Positions count from the first letter of the chain named. Names may count otherwise.
T1: purified human glycophorin A protein (Sigma, cat # G5017) (human, UniProt P02724 20-150)
T1 construct: mature; also called Sigma hGPA; Sigma GPA
T1 sequence (looked up): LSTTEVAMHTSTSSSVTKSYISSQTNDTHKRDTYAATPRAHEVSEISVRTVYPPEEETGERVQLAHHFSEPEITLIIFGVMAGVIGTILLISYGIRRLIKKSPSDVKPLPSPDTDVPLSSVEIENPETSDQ

T2: recombinant human GPA ectodomain (human, UniProt P02724 20-91)
T2 construct: also called recombinant hGPA ECD; recGPA
T2 sequence: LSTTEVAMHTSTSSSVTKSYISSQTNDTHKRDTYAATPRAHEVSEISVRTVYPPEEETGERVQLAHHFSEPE

T3: human glycophorin A in the red blood cell membrane (human, UniProt P02724 20-150)
T3 construct: whole, on cells; used for intact RBC, isolated RBC membranes and transfected cells; the assay field tells which; also called GPA; hGPA
T3 sequence (looked up): T1 sequence (looked up)

B1: TPP-5316 (Fab, V domains shown)
VH: QVQLVQSGAEVKKPGASVKVSCKASGYTFTTYTIHWVRQAPGQGLEWIGYINPSSDYTRYNPKFKDRVTLTTDKSTSTAYMELRSLRSDDTAVYYCQTGTRDYWGQGTTVTVSS
VL: DIQLTQSPSFLSASVGDRVTITCSAASSVSYIYWFQQKPGKAPKLLIYSTSTLPSGVPSRFSGSGSGTEYTLTISSLQPEDFATYYCHQRNSFPFTFGQGTKLEIKR
notes: also called VH: (E1Q)
B2: TPP-5357 (Fab, V domains shown)
VH: B1 VH with Q1E
VL: DIQLTQSPSFLSASVGDRVTITCRAASSVSSYIYWFQQKPGKAPKLLIYSTSTLPSGVPSRFSGSGSGTEYTLTISSLQPEDFATYYCHQRNSFPFTFGQGTKLEIKR
notes: also called VL: (S24R)#
B3: TPP-5317 (Fab, V domains shown)
VH: B1 VH with Q1E, T31S
VL: B1 VL
notes: also called VH: (T31S)
B4: TPP-5345 (Fab, V domains shown)
VH: B1 VH with Q1E
VL: B1 VL with I32L
notes: also called VL: (I32L)
B5: TPP-5334 (Fab, V domains shown)
VH: B1 VH with Q1E, D89E
VL: B1 VL
notes: also called VH: (D89E)
B6: TPP-5354 (Fab, V domains shown)
VH: B1 VH with Q1E
VL: B1 VL with F93Y
notes: also called VL: (F93Y)
B7: TPP-5352 (Fab, V domains shown)
VH: B1 VH with Q1E
VL: B1 VL with H88Q
notes: also called VL: (H88Q)
B8: TPP-5324 (Fab, V domains shown)
VH: B1 VH with Q1E, Y57S
VL: B1 VL
notes: also called VH: (Y57S)
B9: TPP-5349 (Fab, V domains shown)
VH: B1 VH with Q1E
VL: B1 VL with T50A
notes: also called VL: (T50A)
B10: TPP-5355 (Fab, V domains shown)
VH: B1 VH with Q1E
VL: B1 VL with F95Y
notes: also called VL: (F95Y)
B11: TPP-5323 (Fab, V domains shown)
VH: B1 VH with Q1E, D56G
VL: B1 VL
notes: also called VH: (D56G)
B12: TPP-5344 (Fab, V domains shown)
VH: B1 VH with Q1E
VL: B1 VL with V29I
notes: also called VL: (V29I)
B13: TPP-5326 (Fab, V domains shown)
VH: B1 VH with Q1E, N61A
VL: B1 VL
notes: also called VH: (N61A)
B14: TPP-5330 (Fab, V domains shown)
VH: B1 VH with Q1E, L70M
VL: B1 VL
notes: also called VH: (L70M)
B15: TPP-5343 (Fab, V domains shown)
VH: B1 VH with Q1E
VL: B1 VL with S28G
notes: also called VL: (S28G)
B16: TPP-5319 (Fab, V domains shown)
VH: B1 VH with Q1E, I34M
VL: B1 VL
notes: also called VH: (I34M)
B17: TPP-5328 (Fab, V domains shown)
VH: B1 VH with Q1E, K65Q
VL: B1 VL
notes: also called VH: (K65Q)
B18: TPP-5331 (Fab, V domains shown)
VH: B1 VH with Q1E, T72R
VL: B1 VL
notes: also called VH: (T72R)
B19: TPP-5329 (Fab, V domains shown)
VH: B1 VH with Q1E, D66G
VL: B1 VL
notes: also called VH: (D66G)
B20: TPP-5327 (Fab, V domains shown)
VH: B1 VH with Q1E, P62Q
VL: B1 VL
notes: also called VH: (P62Q)
B21: TPP-5347 (Fab, V domains shown)
VH: B1 VH with Q1E
VL: B1 VL with F35Y
notes: also called VL: (F35Y)
B22: TPP-5333 (Fab, V domains shown)
VH: B1 VH with Q1E, R84S
VL: B1 VL
notes: also called VH: (R84S)
B23: TPP-5322 (Fab, V domains shown)
VH: B1 VH with Q1E, S55G
VL: B1 VL
notes: also called VH: (S55G)
B24: TPP-5342 (Fab, V domains shown)
VH: B1 VH with Q1E
VL: B1 VL with S27Q
notes: also called VL: (S27Q)
B25: TPP-5335 (Fab, V domains shown)
VH: B1 VH with Q1E, Q97A
VL: B1 VL
notes: also called VH: (Q97A)
B26: TPP-5320 (Fab, V domains shown)
VH: B1 VH with Q1E, I48M
VL: B1 VL
notes: also called VH: (I48M)
B27: TPP-5332 (Fab, V domains shown)
VH: B1 VH with Q1E, K74T
VL: B1 VL
notes: also called VH: (K74T)
B28: TPP-5351 (Fab, V domains shown)
VH: B1 VH with Q1E
VL: B1 VL with Y70F
notes: also called VL: (Y70F)
B29: TPP-5353 (Fab, V domains shown)
VH: B1 VH with Q1E
VL: B1 VL with R90L
notes: also called VL: (R90L)
B30: TPP-5346 (Fab, V domains shown)
VH: B1 VH with Q1E
VL: B1 VL with Y33A
notes: also called VL: (Y33A)

These binders were tested against T1, purified human glycophorin A protein … (assay: ELISA, native hGPA).

In order of falling “binding by ELISA relative to parental” value:
1. B11  1.49
2. B3  1.36
3. B1  1.33
4. B26  1.24
5. B14  1.2
6. B10  1.16
7. B18  1.11
8. B19  1.02
9. B16  0.99
10. B20  0.98
11. B15  0.95
12. B22  0.92
13. B24  0.91
14. B17  0.89
15. B23  0.86
16. B12  0.84
17. B27  0.83
18. B5  0.8
19. B25  0.77
20. B28  0.71
21. B4  0.6
22. B13  0.56
23. B8  0.53
24. B21  0.52
25. B7  0.36
26. B6  0.33
27. B2  0.23
28. B9  0.12

The binders below were run against T2, recombinant human GPA ectodomain (assay: ELISA, rec hGPA ectodomain).

In order of falling “binding by ELISA relative to parental” value:
1. B11  1.64
2. B10  1.35
3. B26  1.35
4. B3  1.34
5. B1  1.29
6. B14  1.29
7. B19  1.12
8. B16  1.08
9. B18  1.07
10. B20  0.99
11. B15  0.97
12. B22  0.97
13. B24  0.95
14. B17  0.91
15. B23  0.91
16. B5  0.89
17. B27  0.87
18. B25  0.83
19. B28  0.78
20. B12  0.77
21. B13  0.53
22. B4  0.48
23. B21  0.35
24. B8  0.34
25. B7  0.26
26. B2  0.23
27. B6  0.17
28. B29  0.04
29. B30  0.03

Each binder was assayed against T3, human glycophorin A in the red blood … (assay: ELISA, human RBC membranes;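 note: antibodies bound to isolated human red blood cell membrane ghosts coated on 96-well plates, tested 1.5 h at room temperature, bound antibody quantified with a detection antibody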).
Method: In order to evaluate binding of antibodies to GPA in the native context of the red blood cell membrane we made use of isolated red blood cell membranes, also called red blood cells ghosts. These membranes are prepared by first isolating red blood cells from citrated whole blood. Citrated whole blood is layered on to Ficol and centrifuged at low speed for 20 minutes to pellet the red blood cells. The supernatant containing plasma and other blood cells is discarded and the red blood cell pellet is subsequently washed 3 times in 10 cell volumes of phosphate buffered saline (PBS). A 10 ml pellet of purified red blood cells is resuspended in 30 ml of cold low osmorality 20 mM phosphate buffer (pH7.4) and incubated for 30 mins to break open the RBC. After Centrifugation at 10,000 rpm for 30 min at 5° C. the hemoglobin containing supernatant is discarded. To the membrane pellet another 30 ml of 20 mM phosphate buffer is added and the sample centrifuged again at 10,000 rpm for 30 min at 5° C. to pellet the membrane fraction. This wash and centrifugation step is repeated another 4 times. The red blood cell membranes are then resuspended in 20 mL of PBS to achieve an equivalent of approximately 2.5E9 cells/mL and stored frozen at −20° C. Binding of antibodies to RBC ghost can be measured by ELISA in which the RBC ghost suspension (5×10⁶ in 100 ul PBS) was added to each well of flat bottom 96-well ELISA microtiter plates (2HB, Immunolon) and the plates incubated overnight at 4° C. The plates were blocked with Starting blocking buffer (Thermo Fisher) for 2 hours at room temperature (RT). Antibodies or other test molecules were added to each well and incubated for 1.5 hours at RT. After 4 washes 100 ul of an appropriate detection antibody was added to each well and incubated for 1 hour at RT. After 4 washes the detection antibody was measured using appropriate detection reagents.

In order of rising “binding by ELISA relative to parental” value:
1. B29  0.2
2. B9  0.27
3. B7  0.34
4. B6  0.35
5. B2  0.37
6. B8  0.41
7. B30  0.42
8. B4  0.43
9. B21  0.43
10. B13  0.45
11. B27  0.58
12. B22  0.59
13. B12  0.6
14. B17  0.61
15. B25  0.65
16. B3  0.68
17. B15  0.71
18. B28  0.71
19. B5  0.72
20. B20  0.74
21. B24  0.75
22. B23  0.82
23. B16  0.85
24. B14  0.91
25. B18  0.96
26. B26  0.99
27. B19  1
28. B1  1.16
29. B10  1.18
30. B11  1.72

From US20190359687A1 (Bayer, published 2019)
